In patent US20200325187A1 (Genentech, published 2020):
Like-named read-outs stand apart in the source and are kept apart here. No end group written: not given here.

Columns and labels:
hVEGF-A [1] = target: T1, hVEGF-A (human, UniProt P15692-4 27-191, limits assumed)
hVEGF-A [2] = target: T1, hVEGF-A; assay: cell-based or functional assay
hVEGF-A (8-109) [3] = target: T2, hVEGF-A (8-109) (human, UniProt P15692 214-315); assay: phage competition ELISA
T2 sequence (looked up): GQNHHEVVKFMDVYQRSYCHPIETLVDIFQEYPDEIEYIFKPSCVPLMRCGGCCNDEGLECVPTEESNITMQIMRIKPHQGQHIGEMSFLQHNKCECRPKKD

hVEGF-A (8-109) [4] = target: T2, hVEGF-A (8-109); assay: phage competition ELISA (clone on phage; the concentration varied on the axis is that of hVEGF (8-109))
LRP6 E1E2 protein = target: T3, LRP6 E1E2 protein (human, UniProt O75581 20-630, limits assumed); assay: spot phage ELISA
T3 construct: domain: E1E2
T3 sequence (looked up): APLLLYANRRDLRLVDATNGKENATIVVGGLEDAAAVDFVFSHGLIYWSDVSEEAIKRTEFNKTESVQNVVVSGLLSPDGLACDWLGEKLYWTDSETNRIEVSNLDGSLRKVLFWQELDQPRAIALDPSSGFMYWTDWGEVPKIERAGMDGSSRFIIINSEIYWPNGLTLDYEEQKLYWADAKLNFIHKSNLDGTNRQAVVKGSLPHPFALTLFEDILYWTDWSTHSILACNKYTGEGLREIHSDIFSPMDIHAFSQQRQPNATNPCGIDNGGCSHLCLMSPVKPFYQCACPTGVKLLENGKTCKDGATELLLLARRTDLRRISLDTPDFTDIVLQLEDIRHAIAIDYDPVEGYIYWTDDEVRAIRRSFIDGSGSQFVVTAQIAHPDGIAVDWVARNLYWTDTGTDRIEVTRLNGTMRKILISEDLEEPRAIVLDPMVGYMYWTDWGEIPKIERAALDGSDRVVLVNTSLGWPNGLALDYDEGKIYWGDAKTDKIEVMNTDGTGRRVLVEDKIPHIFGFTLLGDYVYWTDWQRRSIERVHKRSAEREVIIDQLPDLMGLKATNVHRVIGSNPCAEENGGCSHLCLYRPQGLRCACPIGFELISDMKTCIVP

LRP6 [5] = target: T4, LRP6 (human, UniProt O75581 20-1613); assay: cell-based or functional assay
LRP6 [6] = target: T4, LRP6; assay: cell-based or functional assay; remark: listed apart in the source
hVEGF-A [7] = target: T1, hVEGF-A; assay: SPR
Description: Depending on the format of the assay either a streptavidin sensor (SA) or a dextran-coated (CM5) sensor was utilized as described below.
Reaction was then quenched by addition of 10 molar excess of Glycine pH 8.0 and the sample was buffer exchanged into PBS using an Amicon 0.5 mL 3000 MWCO ultra-centrifugal filters (EMD Millipore). The biotinylation state of the protein was verified by LC-MS analysis. Biotinylated VEGF-A was then captured on the surface until a resonance unit (RU) signal of about ˜400. For immobilization of VEGF-A on CM5 sensor, the surface was first activated with a mixture of N-ethyl-N′-(3-dimethylaminopropyl)carbodiimide hydrochloride and N-hydroxysuccinimide (EDC/NHS) according to the supplier instructions. VEGF-A was then diluted into coupling buffer (0.1 M Acetate Buffer, pH 5.0) and injected until the signal reached about ˜400 RU followed by a wash with 1 M ethanolamine pH 8.0 to quench remaining activated sites.

hVEGF-A (8-109) [8] = target: T2, hVEGF-A (8-109); assay: spot phage ELISA
Description: (§1) After four rounds of binding selection, individual phage clones were picked and inoculated into 450 μl 2YT media containing 50 µg/ml Carbenecillin and M13-KO7 helper phage in 96-well blocks, which were grown at 37° C. overnight. […] The plates were washed and bound phage was detected with anti-M13-HRP followed by TMB substrate. In these assays, phage binding to BSA alone was tested in parallel to assess background binding. […] Positive clones were subjected to DNA sequence analysis.

hVEGF-A (8-109) [9] = target: T2, hVEGF-A (8-109); assay: spot phage ELISA; remark: listed apart in the source
Description: as §1

hVEGF-A (8-109) [10] = target: T2, hVEGF-A (8-109); assay: spot phage ELISA; remark: listed apart in the source
Description: as §1

hVEGF-A [11] = target: T1, hVEGF-A; assay: cell-based or functional assay; remark: listed apart in the source
hVEGF-A [12] = target: T1, hVEGF-A; assay: cell-based or functional assay; remark: listed apart in the source
hVEGF-A [13] = target: T1, hVEGF-A; assay: KDR-VEGF competition ELISA
hVEGF-A [14] = target: T1, hVEGF-A; assay: phage competition ELISA, soluble CKP
hVEGF-A [15] = target: T1, hVEGF-A; assay: phage competition ELISA, soluble CKP; remark: listed apart in the source
hVEGF-A [16] = target: T1, hVEGF-A; assay: cell-based or functional assay; remark: listed apart in the source
hVEGF-A (8-109) [17] = target: T2, hVEGF-A (8-109); assay: spot phage ELISA; remark: listed apart in the source
Description: as §1

GCNIMLPFWGCGRDFECMSDCICQYYQSCG (designed binder) [VEGF_CKP9.54.90.12]
IC50 (read off the curve) (hVEGF-A [1]): 30 nM
Cellular IC50 (hVEGF-A [2]): 1.2 nM
FOLD [..] [..] TO VARIANT 9.54.90 (hVEGF-A [2]): 1.12 fold

GCNIMLPFWGCGQSFECLAGCICQYYQSCGIA (designed binder) [9.54.1-2]
fold improvement in binding affinity compared to 9.54.1 (hVEGF-A (8-109) [3]): ~10 fold

GCNIMLPFWGCGQSFECLAGCICQYYQSCGVH (designed binder) [9.54.1-90]
fold improvement in binding affinity compared to 9.54.1 (hVEGF-A (8-109) [3]): ~10 fold
IC50 (read off the curve) (hVEGF-A (8-109) [4]): ~0.08 nM

GCNIMLPFWGCGQSFECLAGCICQYYQSCGLS (designed binder) [9.54.1-42]
fold improvement in binding affinity compared to 9.54.1 (hVEGF-A (8-109) [3]): ~10 fold
IC50 (read off the curve) (hVEGF-A (8-109) [4]): ~0.08 nM

GCNIMLPFWGCGQSFECLAGCICQYYQSCGTR (designed binder) [9.54.1-36]
fold improvement in binding affinity compared to 9.54.1 (hVEGF-A (8-109) [3]): ~10 fold
IC50 (read off the curve) (hVEGF-A (8-109) [4]): ~0.06 nM

GCNIMLPFWGCGQSFECLAGCICQYYQSCGGS (designed binder) [9.54.1-63]
fold improvement in binding affinity compared to 9.54.1 (hVEGF-A (8-109) [3]): ~10 fold

GCNIMLPFWGCGRDFECMEQCICQYYQSCG (designed binder) [VEGF_CKP9.54.90.67]
IC50 (read off the curve) (hVEGF-A [1]): 12 to 20 nM
Cellular IC50 (hVEGF-A [2]): 1.1 nM
FOLD [..] [..] TO VARIANT 9.54.90 (hVEGF-A [2]): 1.23 fold

GCNIMLPFWGCGRDFECFYECICQYYQSCG (designed binder) [VEGF_CKP9.54.90.62]
IC50 (read off the curve) (hVEGF-A [1]): 20 nM
Cellular IC50 (hVEGF-A [2]): 0.92 nM
FOLD [..] [..] TO VARIANT 9.54.90 (hVEGF-A [2]): 1.47 fold

GCRNSIKRCKQNSDCLAGCVCSVGHGCG (designed binder) [LRP6_CKP6]
ELISA (LRP6 E1E2 protein): 3.1
S/N vs BSA (LRP6 E1E2 protein): 37.4
Best Fit IC50 (nM) for Wnt1 (5 ng/well), luciferase reporter, fraction F1 (LRP6 [5]): 22900 nM
Best Fit IC50 (nM) for Wnt1 (5 ng/well), luciferase reporter, fraction F2 (LRP6 [5]): 23800 nM
Best Fit IC50 (nM) for Wnt1 (5 ng/well), luciferase reporter, fraction F3 (LRP6 [5]): 4620 nM
Best Fit IC50 (nM) for Wnt3a (25 ng/well), luciferase reporter, fraction F1 (LRP6 [6]): 350000 nM
Best Fit IC50 (nM) for Wnt3a (25 ng/well), luciferase reporter, fraction F2 (LRP6 [6]): 276000 nM

GCQLMQPFWGCKQDSDCLAGCVCHWYQSCG (designed binder, also called E9) [VEGF_CKP9]
Kd (hVEGF-A [7]): 5000 nM
ELISA (hVEGF-A (8-109) [8]): 3.3
S/N vs BSA (hVEGF-A (8-109) [8]): 36
ELISA (hVEGF-A (8-109) [9]): 0.4
S/N vs BSA (hVEGF-A (8-109) [9]): 7.4
ELISA (hVEGF-A (8-109) [10]): 0.4
S/N vs BSA (hVEGF-A (8-109) [10]): 7.4
Cellular IC50 (hVEGF-A [11]): 11700 nM
Cellular IC50 (hVEGF-A [12]): 11700 nM
IC50 (hVEGF-A [13]): 569 nM
IC50 (hVEGF-A [14]): 600 nM
IC50 (hVEGF-A [15]): 1360 nM

GCDVLQPFWGCKQDSDCLAGCVCHWYQSCG (designed binder) [VEGF_CKP9.2]
ELISA (hVEGF-A (8-109) [10]): 2.4
S/N vs BSA (hVEGF-A (8-109) [10]): 31.1
Cellular IC50 (hVEGF-A [11]): 270 nM
IC50 (hVEGF-A [15]): 168 nM

GCRTPWEPHDITCKQDSDCLAGCVCGPNGFCG (designed binder) [VEGF_CKP11]
ELISA (hVEGF-A (8-109) [8]): 4.1
S/N vs BSA (hVEGF-A (8-109) [8]): 57.5
IC50 (hVEGF-A [14]): 80000 nM

GCTTPWPPHEIMCKQDSDCLAGCVCGPNGFCG (designed binder) [VEGF_CKP12]
ELISA (hVEGF-A (8-109) [8]): 3.5
S/N vs BSA (hVEGF-A (8-109) [8]): 55.2
IC50 (hVEGF-A [14]): 60000 nM

GCVTPWKPHWINCKQDSDCLAGCVCGPNGFCG (designed binder) [VEGF_CKP13]
ELISA (hVEGF-A (8-109) [8]): 3.5
S/N vs BSA (hVEGF-A (8-109) [8]): 56.3
IC50 (hVEGF-A [14]): 80000 nM

GCRDLDVKWDCKQDSDCLAGCFCQYYSSCG (designed binder) [VEGF_CKP10]
ELISA (hVEGF-A (8-109) [8]): 3.2
S/N vs BSA (hVEGF-A (8-109) [8]): 43.7
IC50 (hVEGF-A [14]): 1000 nM

GCNIMLPFWGCGQSFECLAGCVCQYYQSCG (designed binder) [VEGF_CKP9.54.1]
Kd (hVEGF-A [7]): 2.2 nM
ELISA (hVEGF-A (8-109) [8]): 2.4
S/N vs BSA (hVEGF-A (8-109) [8]): 29.9
Cellular IC50 (hVEGF-A [12]): 1.47 nM
IC50 (hVEGF-A [13]): 0.2 nM
IC50 (read off the curve) (hVEGF-A (8-109) [4]): ~0.3 nM

GCNIMLPYWGCGQSFECLAGCVCQYYQSCG (designed binder) [VEGF_CKP9.54.1.F8Y]
Kd (hVEGF-A [7]): 0.78 nM

GCNIMLPYWGCGRDFECLAGCVCQYYQSCG (designed binder) [VEGF_CKP9.54.90.F8Y]
Kd (hVEGF-A [7]): 0.4 nM
Cellular IC50 (hVEGF-A [16]): 1.58 nM
FOLD [..] [..] TO VARIANT 9.54.90 (hVEGF-A [16]): 0.85 fold

GCNIMLPFWGCKQDFDCLAGCICQYYQSCGFH (designed binder) [9.54-28]
fold improvement in binding affinity compared to 9.54 (hVEGF-A (8-109) [3]): ~10 fold
IC50 (read off the curve) (hVEGF-A (8-109) [4]): ~0.1 nM

GCPTTRFKQYCKQDSDCLAGCVCGPNGFCG (designed binder) [VEGF_CKP6]
ELISA (hVEGF-A (8-109) [8]): 3.5
S/N vs BSA (hVEGF-A (8-109) [8]): 51.9
IC50 (hVEGF-A [14]): 3000 nM

GCNIMLPFWGCGRDFECMNQCICQYYQSCG (designed binder) [VEGF_CKP9.54.90.13]
IC50 (read off the curve) (hVEGF-A [1]): 20 nM
Cellular IC50 (hVEGF-A [2]): 0.96 nM
FOLD [..] [..] TO VARIANT 9.54.90 (hVEGF-A [2]): 1.41 fold

GCSNRVKVRACKQDSDCLAGCVCGPNGFCG (designed binder) [LRP6_CKP19]
ELISA (LRP6 E1E2 protein): 3.27
S/N vs BSA (LRP6 E1E2 protein): 42
Best Fit IC50 (nM) for Wnt1 (5 ng/well), luciferase reporter, fraction F1 (LRP6 [5]): 23100 nM
Best Fit IC50 (nM) for Wnt1 (5 ng/well), luciferase reporter, fraction F2 (LRP6 [5]): 49300 nM
Best Fit IC50 (nM) for Wnt3a (25 ng/well), luciferase reporter, fraction F1 (LRP6 [6]): 59300 nM
Best Fit IC50 (nM) for Wnt3a (25 ng/well), luciferase reporter, fraction F2 (LRP6 [6]): 69800 nM

GCQDPTFNWALYCKQDSDCLAGCVCQMYQSCG (designed binder) [VEGF_CKP7]
ELISA (hVEGF-A (8-109) [8]): 3.4
S/N vs BSA (hVEGF-A (8-109) [8]): 54.5
ELISA (hVEGF-A (8-109) [17]): 0.1
S/N vs BSA (hVEGF-A (8-109) [17]): 1.3
IC50 (hVEGF-A [14]): 12000 nM

B1: VEGF_CKP9.54.90-Alkyn (designed binder)
chain: GCNIMLPFWGCGRDFECLAGCVCQYYQSCG
modifications: cysteine pairing not given here; also: -Alkyn: alkyne modification, position not given here
Kd (hVEGF-A [7]): 0.49 nM
